According to publication PMC8622166 (2021):
Where a chain is given by its changes, count along the chain named. Names and notes keep the numbering of the source. Read-outs that look alike come from different tables or passages of the source. Each block holds one binder with its values, some of them ahead of it.

Tests used:
[1] = biological target: T1, non-isoprenylated RAC1 full-length (RAC1^FL) (human, UniProt P63000 1-192); assay: stopped-flow
[2] = biological target: T1, non-isoprenylated RAC1 full-length …; assay: kinetic, koff/kon
[3] = biological target: T1, non-isoprenylated RAC1 full-length …; assay: FP; mdGDP-bound RAC1
[4] = biological target: T1, non-isoprenylated RAC1 full-length …; assay: FP
[5] = biological target: T1, non-isoprenylated RAC1 full-length …; assay: kinetic, koff/kon; remark: listed apart in the source
[6] = biological target: T1, non-isoprenylated RAC1 full-length …; assay: stopped-flow; remark: listed apart in the source

B1: GDI1^ΔC6 (domain or fragment)
chain: MAEQEPTAEQLAQIAAENEEDEHSVNYKPPAQKSIQEIQELDKDDESLRKYKEALLGRVAVSADPNVPNVVVTGLTLVCSSAPGPLELDLTGDLESFKKQSFVLKEGVEYRIKISFRVNREIVSGMKYIQHTYRKGVKIDKTDYMVGSYGPRAEEYEFLTPVEEAPKGMLARGSYSIKSRFTDDDKTDHLSWEWNLTI
koff [1]: 0.59 s⁻¹
Kd [2]: 21.7 µM
Kd [3]: 29 µM

B2: GDI1^E121K (natural protein)
chain: MAEQEPTAEQLAQIAAENEEDEHSVNYKPPAQKSIQEIQELDKDDESLRKYKEALLGRVAVSADPNVPNVVVTGLTLVCSSAPGPLELDLTGDLESFKKQSFVLKEGVEYRIKISFRVNRKIVSGMKYIQHTYRKGVKIDKTDYMVGSYGPRAEEYEFLTPVEEAPKGMLARGSYSIKSRFTDDDKTDHLSWEWNLTIKKDWKD
Kd [3]: 14 µM

B3: GDI1^2E>2K (E163K and E164K) (natural protein)
chain: B2 chain with K121E, E163K, E164K
Kd [3]: 117 µM

B4: GDI1 (RHOGDI1), wild type (natural protein)
chain: B2 chain with K121E
Kd [4]: 0.96 µM
Kd [5]: 1.03 µM
Kd [3]: 1.2 µM
koff [6]: 0.34 s⁻¹

More lines, now with the values ahead:

koff [1]: 0.54 s⁻¹
Kd [2]: 16.8 µM
Kd [3]: 102 µM
B5: GDI1^ΔN15 (domain or fragment)
chain: AENEEDEHSVNYKPPAQKSIQEIQELDKDDESLRKYKEALLGRVAVSADPNVPNVVVTGLTLVCSSAPGPLELDLTGDLESFKKQSFVLKEGVEYRIKISFRVNREIVSGMKYIQHTYRKGVKIDKTDYMVGSYGPRAEEYEFLTPVEEAPKGMLARGSYSIKSRFTDDDKTDHLSWEWNLTIKKDWKD

Kd [3]: 174 µM
B6: GDI1^ΔN25 (domain or fragment)
chain: NYKPPAQKSIQEIQELDKDDESLRKYKEALLGRVAVSADPNVPNVVVTGLTLVCSSAPGPLELDLTGDLESFKKQSFVLKEGVEYRIKISFRVNREIVSGMKYIQHTYRKGVKIDKTDYMVGSYGPRAEEYEFLTPVEEAPKGMLARGSYSIKSRFTDDDKTDHLSWEWNLTIKKDWKD
